Holding throughout (assay): cell-based or functional assay
Assay [1] deals with hGLP-1R (Homo sapiens, UniProt P43220).
In assay [2] the target is human glucagon receptor (human) (UniProt P47871).
Assay [3] has as its target human GLP1-R (SNAP-GLP-1R expressed in HEK293 cells) (human) (UniProt P43220).
In assay [4] the target is T1, human GIP receptor (human) (UniProt P48546).
T1 sequence (looked up): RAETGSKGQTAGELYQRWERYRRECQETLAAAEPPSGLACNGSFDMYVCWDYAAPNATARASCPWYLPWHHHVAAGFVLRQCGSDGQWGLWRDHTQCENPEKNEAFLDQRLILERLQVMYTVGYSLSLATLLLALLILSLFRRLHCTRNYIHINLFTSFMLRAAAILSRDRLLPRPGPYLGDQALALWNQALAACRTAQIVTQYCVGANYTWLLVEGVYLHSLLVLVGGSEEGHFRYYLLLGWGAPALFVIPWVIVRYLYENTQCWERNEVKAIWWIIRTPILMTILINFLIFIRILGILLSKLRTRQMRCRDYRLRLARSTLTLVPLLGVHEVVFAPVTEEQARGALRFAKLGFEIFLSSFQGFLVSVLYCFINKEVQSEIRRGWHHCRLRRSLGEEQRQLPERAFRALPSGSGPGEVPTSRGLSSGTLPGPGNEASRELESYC

In assay [5] the target is human GLP-1R (SNAP-GLP-1R expressed in HEK293 cells) (human) (UniProt P43220).

Positions count from the first letter of the chain named. Non-standard residues stand in square brackets, D forms with d. No end group written: not given here. αMeL = CC(C)C[C@](C)(N)C(=O)O; Aib = CC(C)(N)C(=O)O

Chain of human glucagon receptor (human) (P47871 26-477): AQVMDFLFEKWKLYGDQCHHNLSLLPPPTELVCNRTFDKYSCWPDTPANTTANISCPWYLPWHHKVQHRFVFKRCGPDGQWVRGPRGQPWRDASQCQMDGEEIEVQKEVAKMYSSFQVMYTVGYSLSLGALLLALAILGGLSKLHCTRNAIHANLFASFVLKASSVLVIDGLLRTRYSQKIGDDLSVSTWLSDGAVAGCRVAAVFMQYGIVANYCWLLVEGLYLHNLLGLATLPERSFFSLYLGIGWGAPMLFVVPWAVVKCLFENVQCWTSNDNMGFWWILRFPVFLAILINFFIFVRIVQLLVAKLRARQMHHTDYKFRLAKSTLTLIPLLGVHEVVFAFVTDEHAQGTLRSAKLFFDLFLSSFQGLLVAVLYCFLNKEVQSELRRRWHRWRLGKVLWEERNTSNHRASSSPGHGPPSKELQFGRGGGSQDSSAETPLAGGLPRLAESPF
Chain of human GLP1-R (SNAP-GLP-1R expressed in HEK293 cells) (human) (P43220 24-463): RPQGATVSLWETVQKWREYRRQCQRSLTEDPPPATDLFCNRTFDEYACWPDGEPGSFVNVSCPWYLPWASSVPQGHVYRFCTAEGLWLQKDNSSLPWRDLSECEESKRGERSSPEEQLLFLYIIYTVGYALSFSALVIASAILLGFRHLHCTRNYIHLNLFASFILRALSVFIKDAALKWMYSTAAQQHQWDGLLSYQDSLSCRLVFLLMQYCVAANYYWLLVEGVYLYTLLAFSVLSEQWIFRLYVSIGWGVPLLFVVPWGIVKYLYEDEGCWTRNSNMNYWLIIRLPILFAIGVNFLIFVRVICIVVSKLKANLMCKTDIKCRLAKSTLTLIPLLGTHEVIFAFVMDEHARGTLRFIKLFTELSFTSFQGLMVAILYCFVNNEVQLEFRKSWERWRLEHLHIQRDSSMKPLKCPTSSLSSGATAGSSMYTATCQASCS
Chain of human GLP-1R (SNAP-GLP-1R expressed in HEK293 cells) (human) (P43220 24-463): as above
Chain of hGLP-1R (P43220 24-463): as above

B1: Example 29 (peptide)
chain: YXQGTFTSDFSXXLDKKAQXAFIEYLLAGGPSSGEPPPSEG
modifications: Aib, Orn, alpha-methyl-Leu, acylated Lys, C-terminal amide; synthetic construct; SITE 2: note = 2-Aminoisobutyric Acid; SITE 12: note = L-ornithine; SITE 13: note = alpha-methyl-leucine; SITE 17: note = Lysine is chemically modified through conjugation of the epsilon-amino group of the Lysine side chain with (2-[2-(2-Amino-ethoxy)-ethoxy]-acetyl)-(gamma-Glu)
For the molecule B1, in assay [1], the Relative cAMP EC50 amounted to 3.56 nM and the cAMP Rel EC50 (in the presence of 1% HSA) stood at 493 nM. Also, in assay [2], the Relative cAMP EC50 was found to be 11.1 nM and the cAMP Rel EC50 (in the presence of 1% HSA) worked out at 1350 nM. In assay [3], this molecule registered a GLP1R Internalization EC50 of 129 nM and an Internalization % TOP of 57%. For the same molecule, in assay [4], the Relative cAMP EC50 was 0.35 nM and the cAMP Rel EC50 (in the presence of 1% HSA) was determined as 70.1 nM.

B2: Example 86 (peptide)
chain: B1 chain with E35A, E40G, G41E
modifications: synthetic construct; SITE 2: note = 2-Aminoisobutyric Acid; SITE 12: note = L-ornithine; SITE 13: note = alpha-methyl-leucine; SITE 17: note = Lysine is chemically modified through conjugation of the epsilon-amino group of the Lysine side chain with (2-[2-(2-Amino-ethoxy)-ethoxy]-acetyl)-(gamma-Glu)
Turning to B2, in assay [3], the GLP1R Internalization EC50 is 57.8 nM and the Internalization % TOP stood at 52.5%.

B3: Example 85 (peptide)
chain: B1 chain with E35A, E40G, G41D
modifications: synthetic construct; SITE 2: note = 2-Aminoisobutyric Acid; SITE 12: note = L-ornithine; SITE 13: note = alpha-methyl-leucine; SITE 17: note = Lysine is chemically modified through conjugation of the epsilon-amino group of the Lysine side chain with (2-[2-(2-Amino-ethoxy)-ethoxy]-acetyl)-(gamma-Glu)
For the molecule B3, in assay [3], the GLP1R Internalization EC50 was 326 nM and the Internalization % TOP is 48.3%.

B4: Example 74 (peptide)
chain: B1 chain with A28E, G29X, E35A, E40G, G41S
modifications: synthetic construct; SITE 2: note = 2-Aminoisobutyric Acid; SITE 12: note = L-ornithine; SITE 13: note = alpha-methyl-leucine; SITE 17: note = Lysine is chemically modified through conjugation of the epsilon-amino group of the Lysine side chain with (2-[2-(2-Amino-ethoxy)-ethoxy]-acetyl)-(gamma-Glu)
Take B4: in assay [3], the GLP1R Internalization EC50 is 72.7 nM and the Internalization % TOP was found to be 53.3%.

B5: Example 31 (peptide)
chain: B1 chain with X12K, S39G
modifications: Lys acylated; non-natural residues; C-amide; synthetic construct; SITE 2: note = 2-Aminoisobutyric Acid; SITE 13: note = alpha-methyl-leucine; SITE 17: note = Lysine is chemically modified through conjugation of the epsilon-amino group of the Lysine side chain with (2-[2-(2-Amino-ethoxy)-ethoxy]-acetyl)-(gamma-Glu)-CO-(CH2) 18-CO2H; SITE 20: n
On to B5, for which the Relative cAMP EC50 in assay [1] worked out at 2.16 nM; in assay [2], 8.42 nM; in assay [4] it was 0.249 nM. The cAMP Rel EC50 (in the presence of 1% HSA) is 737 nM in assay [1], 1750 nM in assay [2] and 63.6 nM in assay [4]. In addition, in assay [3], the GLP1R Internalization EC50 came to 91.9 nM. In assay [3], the Internalization % TOP turned out to be 67.4%.

B6: Example 285 (peptide)
chain: YXQGTFTSDXSKXLDKKAQXAFIEYLIAXGESSGAPPPSGS
modifications: synthetic construct; SITE 2: note = 2-Aminoisobutyric Acid; SITE 10: note = 3-(4-Pyridyl)-L-alanine; SITE 13: note = alpha-methyl-leucine; SITE 17: note = Lysine is chemically modified through conjugation of the epsilon-amino group of the Lysine side chain with (2-[2-(2-Amino-ethoxy)-ethoxy]-acetyl)
As for B6, the Relative cAMP EC50 in assay [1] stood at 2.87 nM; in assay [2], 2.32 nM; in assay [4] it was 0.0652 nM. Further, the cAMP Rel EC50 (in the presence of 1% HSA) in assay [1] was 365 nM; in assay [2] it was 409 nM; in assay [4], 8.22 nM. The GLP1R Internalization EC50 in assay [5] turned out to be 59.9 nM. In assay [5], the Internalization % TOP was 73.6%.

B7: Example 883 (peptide)
chain: B6 chain with K12Q, X29G, E31P, S41E
modifications: synthetic construct; SITE 2: note = 2-Aminoisobutyric Acid; SITE 10: note = 3-(4-Pyridyl)-L-alanine; SITE 13: note = alpha-methyl-leucine; SITE 17: note = Lysine is chemically modified through conjugation of the epsilon-amino group of the Lysine side chain with (gamma-Glu)2-CO-(CH2)16-CO2H; SITE 20:
For the molecule B7, the values for the Relative cAMP EC50 in assay [1], in assay [2] and in assay [4] were 1.05 nM, 4.02 nM and 0.0779 nM, respectively. In assay [5], this molecule returned a GLP1R Internalization EC50 of 23.9 nM. The molecule further yielded an Internalization % TOP in assay [5] of 77.1%.

B8: Example 248 (peptide)
chain: YXQGTFTSDFSXXLDKKAQXAFIEYLLEXGXSSGAPPPSGE
modifications: Aib, Orn, αMeL, 4Pal; lysine acylated C18 diacid; C-terminal amide; synthetic construct; SITE 2: note = 2-Aminoisobutyric Acid; SITE 12: note = L-ornithine; SITE 13: note = alpha-methyl-leucine; SITE 17: note = Lysine is chemically modified through conjugation of the epsilon-amino group of the Lysine side chain with (2-[2-(2-Amino-ethoxy)-ethoxy]-acetyl)-(gamma-Glu)
Consider B8, for which the cAMP Rel EC50 (in the presence of 1% HSA) in assay [1] was 438 nM; in assay [2], 241 nM; in assay [4], 10.6 nM. The same molecule had a GLP1R Internalization EC50 in assay [5] of 67.4 nM. This molecule also had an Internalization % TOP in assay [5] of 39.5%.

Take Y[Aib]QGTFTSDFSK[αMeL]LDKKAQQAFIEYLLA[Aib]GPSSGAPPPSEG-NH2 (not fully specified (residue 17)) [Example 30]: in assay [1], the Relative cAMP EC50 worked out at 3.18 nM and the cAMP Rel EC50 (in the presence of 1% HSA) amounted to 806 nM. Further, in assay [2], the Relative cAMP EC50 was found to be 5.22 nM and the cAMP Rel EC50 (in the presence of 1% HSA) amounted to 969 nM. Moreover, in assay [3], the GLP1R Internalization EC50 worked out at 70.4 nM and the Internalization % TOP was found to be 72.8%. Besides, in assay [4], the Relative cAMP EC50 was found to be 0.247 nM and the cAMP Rel EC50 (in the presence of 1% HSA) was 72.9 nM.

B9: Example 90 (peptide)
chain: YXQGTFTSDFSXXLDKKAQXAFIEYLLAGGPSSGAPPPSGSE
modifications: synthetic construct; SITE 2: note = 2-Aminoisobutyric Acid; SITE 12: note = L-ornithine; SITE 13: note = alpha-methyl-leucine; SITE 17: note = Lysine is chemically modified through conjugation of the epsilon-amino group of the Lysine side chain with (2-[2-(2-Amino-ethoxy)-ethoxy]-acetyl)-(gamma-Glu)
In assay [3], B9 registered a GLP1R Internalization EC50 of 70.8 nM and an Internalization % TOP of 49.8%.
